Assay results taken from US20050053913A1 (Johns Hopkins, published 2005).

Target: T1, GAL4-DB (amino acids 1-147) expressed alone (yeast, UniProt P04386 1-147)
T1 construct: range 1-147; Negative control, not fused to another polypeptide; also called pPC97
Test: yeast reporter SPAL5:URA3, growth on Sc-ura and 5-FOA
From the text: In this example, we employed the SPAL5:URA3 allele, which carries 5 GBSs.

T1 sequence (P04386 1-147 limits assumed): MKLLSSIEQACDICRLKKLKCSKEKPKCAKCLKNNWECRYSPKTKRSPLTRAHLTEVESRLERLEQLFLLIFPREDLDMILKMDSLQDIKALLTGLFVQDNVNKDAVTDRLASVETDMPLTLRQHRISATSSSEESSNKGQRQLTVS

B1: GAL4-AD (amino acids 768-881) expressed alone (other, yeast, UniProt P04386 768-881, looked up)
chain: ANFNQSGNIADSSLSFTFTNSSNGPNLITTQTNSQALSQPIASSNVHDNFMNNEITASKIDDGNNSKPLSPGWTDQTAYNAFGITTGMFNTTTMDDVYNYLFDDEDTPPNPKKE
notes: range 768-881; Negative control, not fused to another polypeptide; also called AD empty (pPC86); pPC86
binding result: no binding
